Consider 11 variants from IntAct's records for PubMed 31515488.

Sequences and labels used below:
B1: Cyclin-dependent kinase 4 (Homo sapiens), P11802 (parent)
chain: MATSRYEPVAEIGVGAYGTVYKARDPHSGHFVALKSVRVPNGGGGGGGLPISTVREVALLRRLEAFEHPNVVRLMDVCATSRTDREIKVTLVFEHVDQDLRTYLDKAPPPGLPAETIKDLMRQFLRGLDFLHANCIVHRDLKPENILVTSGGTVKLADFGLARIYSYQMALTPVVVTLWYRAPEVLLQSTYATPVDMWSVGCIFAEMFRRKPLFCGNSEADQLGKIFDLIGLPPEDDWPRDVSLPRGAFPPRGPRPVQSVVPEMEESGAQLLLEMLTFNPHKRISAFRALQHSYLHKDEGNPE
B2: Coiled-coil domain-containing protein 33 (Homo sapiens), Q8N5R6-5 (parent)
chain: MGEPGPPSPPAPKAAPGLIDSFSEMNNYRRAMQKMAEDILSLRRQASILEGENRILRSRLAQQEEEEGQGKASEAQNTVSMKQKLLLSELDMKKLRDRVQHLQNELIRKNDREKELLLLYQAQQPQAALLKQYQGKLQKMKALEETVRHQEKVIEKMERVLEDRLQDRSKPPPLNRQQGKPYTGFPMLSASGLPLGSMGENLPVELYSVLLAENAKLRTELDKNRHQQAPIILQQQALPVDPGELGAGGDLTERLQETHGPGHSECTETLPAQDLLSGTSDKFNLLAKLEHAQSRILSLESQLEDSARRWGREKQDLATRLQEQEKGFRHPSNSIIIEQPVSDPPGVAPRGSGGGAGSHRTPKVTGP
partner: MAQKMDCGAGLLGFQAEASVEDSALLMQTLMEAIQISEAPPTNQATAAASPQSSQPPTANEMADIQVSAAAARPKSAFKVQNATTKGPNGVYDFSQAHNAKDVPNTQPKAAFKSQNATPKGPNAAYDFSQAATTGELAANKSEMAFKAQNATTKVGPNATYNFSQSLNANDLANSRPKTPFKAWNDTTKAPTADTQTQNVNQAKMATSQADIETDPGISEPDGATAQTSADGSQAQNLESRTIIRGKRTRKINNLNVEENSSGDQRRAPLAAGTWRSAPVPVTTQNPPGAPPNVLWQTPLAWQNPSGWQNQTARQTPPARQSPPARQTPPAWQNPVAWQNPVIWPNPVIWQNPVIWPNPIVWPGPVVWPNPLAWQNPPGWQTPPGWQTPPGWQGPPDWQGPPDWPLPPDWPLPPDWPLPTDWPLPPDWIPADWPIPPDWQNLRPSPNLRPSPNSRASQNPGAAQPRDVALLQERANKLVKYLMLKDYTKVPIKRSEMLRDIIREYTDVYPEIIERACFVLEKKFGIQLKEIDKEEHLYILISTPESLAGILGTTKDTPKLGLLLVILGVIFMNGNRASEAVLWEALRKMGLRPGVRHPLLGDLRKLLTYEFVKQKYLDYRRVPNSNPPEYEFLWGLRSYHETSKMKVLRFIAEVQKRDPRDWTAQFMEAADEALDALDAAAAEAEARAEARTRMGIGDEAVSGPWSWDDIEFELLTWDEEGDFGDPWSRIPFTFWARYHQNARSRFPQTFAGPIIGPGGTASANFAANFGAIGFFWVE
B3: Notch homolog 2 N-terminal-like protein A (Homo sapiens), Q7Z3S9 (parent)
chain: MCVTYHNGTGYCKCPEGFLGEYCQHRDPCEKNRCQNGGTCVAQAMLGKATCRCASGFTGEDCQYSTSHPCFVSRPCLNGGTCHMLSRDTYECTCQVGFTGKECQWTDACLSHPCANGSTCTTVANQFSCKCLTGFTGQKCETDVNECDIPGHCQHGGTCLNLPGSYQCQCLQGFTGQYCDSLYVPCAPSPCVNGGTCRQTGDFTFECNCLPETVRRGTELWERDREVWNGKEHDEN
partner: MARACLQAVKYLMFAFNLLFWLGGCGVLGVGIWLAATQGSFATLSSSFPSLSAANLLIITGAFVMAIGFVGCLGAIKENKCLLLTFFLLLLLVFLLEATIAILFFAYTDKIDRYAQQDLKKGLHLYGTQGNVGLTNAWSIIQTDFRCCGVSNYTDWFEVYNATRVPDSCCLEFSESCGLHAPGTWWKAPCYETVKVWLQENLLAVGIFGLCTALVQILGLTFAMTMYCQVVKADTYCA
B4: ATP synthase mitochondrial F1 complex assembly factor 2 (Homo sapiens), Q8N5M1 (parent)
chain: MWRSCLRLRDGGRRLLNRPAGGPSASMSPGPTIPSPARAYAPPTERKRFYQNVSITQGEGGFEINLDHRKLKTPQAKLFTVPSEALAIAVATEWDSQQDTIKYYTMHLTTLCNTSLDNPTQRNKDQLIRAAVKFLDTDTICYRVEEPETLVELQRNEWDPIIEWAEKRYGVEISSSTSIMGPSIPAKTREVLVSHLASYNTWALQGIEFVAAQLKSMVLTLGLIDLRLTVEQAVLLSRLEEEYQIQKWGNIEWAHDYELQELRARTAAGTLFIHLCSESTTVKHKLLKE
partner: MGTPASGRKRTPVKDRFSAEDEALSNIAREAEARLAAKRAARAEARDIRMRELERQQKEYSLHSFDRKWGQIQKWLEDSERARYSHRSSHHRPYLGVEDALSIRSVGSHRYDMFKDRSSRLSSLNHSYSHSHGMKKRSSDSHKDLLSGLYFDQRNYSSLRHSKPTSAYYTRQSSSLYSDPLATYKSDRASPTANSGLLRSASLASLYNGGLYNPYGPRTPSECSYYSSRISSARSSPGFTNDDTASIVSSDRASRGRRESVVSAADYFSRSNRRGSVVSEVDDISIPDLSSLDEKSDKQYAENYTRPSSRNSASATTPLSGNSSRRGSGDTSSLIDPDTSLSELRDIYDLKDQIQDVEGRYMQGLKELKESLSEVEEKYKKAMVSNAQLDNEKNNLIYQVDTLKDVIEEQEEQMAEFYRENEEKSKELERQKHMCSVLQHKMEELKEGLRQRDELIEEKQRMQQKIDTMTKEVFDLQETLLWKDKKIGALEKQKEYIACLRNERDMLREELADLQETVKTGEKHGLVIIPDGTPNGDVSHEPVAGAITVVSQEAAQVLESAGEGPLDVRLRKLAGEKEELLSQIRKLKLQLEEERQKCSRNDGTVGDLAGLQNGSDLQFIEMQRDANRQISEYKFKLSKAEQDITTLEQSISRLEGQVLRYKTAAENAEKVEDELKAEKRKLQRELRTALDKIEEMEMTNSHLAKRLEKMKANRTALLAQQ
B5: Embryonal Fyn-associated substrate (Homo sapiens), O43281 (parent)
chain: MAIATSTQLARALYDNTAESPQELSFRRGDVLRVLQREGAGGLDGWCLCSLHGQQGIVPANRVKLLPAGPAPKPSLSPASPAQPGSPYPAPDHSNEDQEVYVVPPPARPCPTSGPPAGPCPPSPDLIYKIPRASGTQLAAPRDALEVYDVPPTALRVPSSGPYDCPASFSHPLTRVAPQPPGEDDAPYDVPLTPKPPAELEPDLEWEGGREPGPPIYAAPSNLKRASALLNLYEAPEELLADGEGGGTDEGIYDVPLLGPEAPPSPEPPGALASHDQDTLAQLLARSPPPPHRPRLPSAESLSRRPLPALPVPEAPSPSPVPSPAPGRKGSIQDRPLPPPPPRLPGYGGPKVEGDPEGREMEDDPAGHHNEYEGIPMAEEYDYVHLKGMDKAQGSRPPDQACTGDPELPERGMPAPQEALSPGEPLVVSTGDLQLLYFYAGQCQSHYSALQAAVAALMSSTQANQPPRLFVPHSKRVVVAAHRLVFVGDTLGRLAASAPLRAQVRAAGTALGQALRATVLAVKGAALGYPSSPAIQEMVQCVTELAGQALQFTTLLTSLAP
partner: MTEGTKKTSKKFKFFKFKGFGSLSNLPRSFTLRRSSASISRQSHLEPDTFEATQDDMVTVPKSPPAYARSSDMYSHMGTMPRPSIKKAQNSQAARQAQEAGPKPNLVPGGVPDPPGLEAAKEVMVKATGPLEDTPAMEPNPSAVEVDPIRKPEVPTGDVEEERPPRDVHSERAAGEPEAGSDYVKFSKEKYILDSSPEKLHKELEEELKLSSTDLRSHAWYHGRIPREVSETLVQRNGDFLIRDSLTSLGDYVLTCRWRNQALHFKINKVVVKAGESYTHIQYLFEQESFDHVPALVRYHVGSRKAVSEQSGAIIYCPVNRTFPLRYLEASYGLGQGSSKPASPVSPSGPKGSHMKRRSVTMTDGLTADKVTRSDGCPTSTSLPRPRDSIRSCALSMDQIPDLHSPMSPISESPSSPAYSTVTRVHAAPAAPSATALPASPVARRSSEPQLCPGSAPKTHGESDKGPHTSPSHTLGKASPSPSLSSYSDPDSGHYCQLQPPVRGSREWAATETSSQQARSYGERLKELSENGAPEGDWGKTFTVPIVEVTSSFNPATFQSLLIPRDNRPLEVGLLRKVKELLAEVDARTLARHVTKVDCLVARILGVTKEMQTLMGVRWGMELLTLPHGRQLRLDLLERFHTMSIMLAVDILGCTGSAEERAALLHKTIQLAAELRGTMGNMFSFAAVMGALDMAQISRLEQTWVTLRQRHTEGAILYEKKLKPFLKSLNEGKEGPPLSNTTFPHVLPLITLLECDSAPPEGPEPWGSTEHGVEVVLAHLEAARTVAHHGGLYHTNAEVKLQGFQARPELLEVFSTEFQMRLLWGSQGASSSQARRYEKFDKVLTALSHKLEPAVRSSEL
B6: Notch homolog 2 N-terminal-like protein A (Homo sapiens), Q7Z3S9 (parent)
chain: B3 chain

The variants in one assay derive from B1. The settings on record: with cdn2b_human CDKN2B.
In the case of R209C, the “effect of a mutation on the interaction” value was “with no effect”.

In another assay the parent is B1. The settings on record: with ccnd3_human CCND3, P30281.
Chain of ccnd3_human CCND3, P30281 (P30281 whole entry): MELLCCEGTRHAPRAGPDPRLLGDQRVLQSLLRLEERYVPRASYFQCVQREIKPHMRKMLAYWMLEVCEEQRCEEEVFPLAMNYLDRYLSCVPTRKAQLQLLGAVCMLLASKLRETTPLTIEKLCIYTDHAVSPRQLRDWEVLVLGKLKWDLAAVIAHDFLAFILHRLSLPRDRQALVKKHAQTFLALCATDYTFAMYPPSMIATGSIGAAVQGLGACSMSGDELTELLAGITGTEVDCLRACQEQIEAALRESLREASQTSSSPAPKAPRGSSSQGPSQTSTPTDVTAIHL
For the variant R209C, the “effect of a mutation on the interaction” value is “with no effect”.

Variants of B1 are the subject of a further assay. The settings on record: with cdn2c_human CDKN2C.
On to R209C, for which the “effect of a mutation on the interaction” value is “with no effect”.

In another assay the parent is B2. The settings on record: with magd1_human MAGED1, Q9Y5V3.
For P203L, the “effect of a mutation on the interaction” value is “with no effect”.

As to M25V, the “effect of a mutation on the interaction” value is reported as “with no effect”.

As for G196R, the “effect of a mutation on the interaction” value was “with no effect”.

For R30L, the “effect of a mutation on the interaction” value is reported as “with no effect”.

Variants of B3 are the subject of a further assay. The settings on record: with tsn4_human TSPAN4, O14817.
As to A115T, the “effect of a mutation on the interaction” value is recorded as “with no effect”.

Consider R74Q, for which the “effect of a mutation on the interaction” value is on record as “with no effect”.

The next assay covers variants of B4. The settings on record: with lrrf2_human LRRFIP2, Q9Y608.
E241G: the “effect of a mutation on the interaction” value is reported as “with no effect”.

Another assay covers variants of B5. The settings on record: with sh2d3_human SH2D3C.
S265F: the “effect of a mutation on the interaction” value is “with no effect”.

For the variant A140D, the “effect of a mutation on the interaction” value is reported as “with no effect”.

A further assay covers variants of B6. The settings on record: with pde9a_human PDE9A.
With R74Q, the “effect of a mutation on the interaction” value was “with no effect”.

The next assay covers variants of B6. The settings on record: with ppbi_human ALPI.
Take R74Q: the “effect of a mutation on the interaction” value is reported as “with no effect”.

Variants of B6 are the subject of the next assay. The settings on record: with snai1_human SNAI1, O95863.
Chain of snai1_human SNAI1, O95863 (O95863 whole entry): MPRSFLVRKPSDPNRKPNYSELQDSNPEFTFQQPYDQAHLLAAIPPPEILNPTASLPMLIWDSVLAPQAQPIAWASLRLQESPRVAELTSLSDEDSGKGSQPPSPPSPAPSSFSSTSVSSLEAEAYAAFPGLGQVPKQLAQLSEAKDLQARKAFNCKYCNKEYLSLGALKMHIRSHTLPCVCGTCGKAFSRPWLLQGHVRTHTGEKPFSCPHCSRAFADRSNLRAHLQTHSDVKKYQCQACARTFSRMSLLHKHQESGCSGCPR
As to R74Q, the “effect of a mutation on the interaction” value is given as “with no effect”.

Variants of B6 are the subject of another assay. The settings on record: with anfb_human NPPB.
R74Q: the “effect of a mutation on the interaction” value was “with no effect”.

In another assay the parent is B6. The settings on record: with adck5_human ADCK5, Q3MIX3.
Chain of adck5_human ADCK5, Q3MIX3 (Q3MIX3 whole entry): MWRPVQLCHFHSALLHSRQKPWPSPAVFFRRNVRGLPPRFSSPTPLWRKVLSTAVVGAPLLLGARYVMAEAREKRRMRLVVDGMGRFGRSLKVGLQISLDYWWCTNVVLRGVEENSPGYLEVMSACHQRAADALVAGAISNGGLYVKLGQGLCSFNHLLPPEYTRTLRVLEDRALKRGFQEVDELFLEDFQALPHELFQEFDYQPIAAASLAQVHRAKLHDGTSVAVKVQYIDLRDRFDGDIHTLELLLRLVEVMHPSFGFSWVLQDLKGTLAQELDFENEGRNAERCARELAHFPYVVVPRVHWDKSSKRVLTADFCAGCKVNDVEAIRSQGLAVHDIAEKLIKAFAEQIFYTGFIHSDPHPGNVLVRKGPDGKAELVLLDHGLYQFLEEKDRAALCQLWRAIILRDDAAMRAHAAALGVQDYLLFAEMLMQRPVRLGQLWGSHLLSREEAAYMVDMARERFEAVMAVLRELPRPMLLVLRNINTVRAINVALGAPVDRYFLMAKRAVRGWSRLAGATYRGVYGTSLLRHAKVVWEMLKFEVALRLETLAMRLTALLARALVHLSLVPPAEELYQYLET
On to R74Q, for which the “effect of a mutation on the interaction” value is recorded as “with no effect”.

Variants of B6 are the subject of the next assay. The settings on record: with catz_human CTSZ.
For R74Q, the “effect of a mutation on the interaction” value is on record as “with no effect”.

The variants in a further assay derive from B6. The settings on record: with txnd5_human TXNDC5, Q8NBS9.
Chain of txnd5_human TXNDC5, Q8NBS9 (Q8NBS9 whole entry): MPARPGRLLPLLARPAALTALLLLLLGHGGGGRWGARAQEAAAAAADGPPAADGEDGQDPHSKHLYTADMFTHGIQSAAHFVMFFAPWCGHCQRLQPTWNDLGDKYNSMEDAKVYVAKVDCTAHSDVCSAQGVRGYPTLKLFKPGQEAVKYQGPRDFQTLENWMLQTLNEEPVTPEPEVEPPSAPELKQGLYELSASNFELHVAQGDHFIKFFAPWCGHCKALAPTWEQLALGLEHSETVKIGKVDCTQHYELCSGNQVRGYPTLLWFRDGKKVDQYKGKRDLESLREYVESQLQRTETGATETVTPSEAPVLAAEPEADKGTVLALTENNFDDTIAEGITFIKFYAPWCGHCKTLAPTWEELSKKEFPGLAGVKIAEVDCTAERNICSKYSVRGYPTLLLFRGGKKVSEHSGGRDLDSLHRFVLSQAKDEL
Regarding R74Q, the “effect of a mutation on the interaction” value is given as “with no effect”.

Another assay covers variants of B6. The settings on record: with trpv6_human TRPV6, Q9H1D0.
Chain of trpv6_human TRPV6, Q9H1D0 (Q9H1D0 whole entry): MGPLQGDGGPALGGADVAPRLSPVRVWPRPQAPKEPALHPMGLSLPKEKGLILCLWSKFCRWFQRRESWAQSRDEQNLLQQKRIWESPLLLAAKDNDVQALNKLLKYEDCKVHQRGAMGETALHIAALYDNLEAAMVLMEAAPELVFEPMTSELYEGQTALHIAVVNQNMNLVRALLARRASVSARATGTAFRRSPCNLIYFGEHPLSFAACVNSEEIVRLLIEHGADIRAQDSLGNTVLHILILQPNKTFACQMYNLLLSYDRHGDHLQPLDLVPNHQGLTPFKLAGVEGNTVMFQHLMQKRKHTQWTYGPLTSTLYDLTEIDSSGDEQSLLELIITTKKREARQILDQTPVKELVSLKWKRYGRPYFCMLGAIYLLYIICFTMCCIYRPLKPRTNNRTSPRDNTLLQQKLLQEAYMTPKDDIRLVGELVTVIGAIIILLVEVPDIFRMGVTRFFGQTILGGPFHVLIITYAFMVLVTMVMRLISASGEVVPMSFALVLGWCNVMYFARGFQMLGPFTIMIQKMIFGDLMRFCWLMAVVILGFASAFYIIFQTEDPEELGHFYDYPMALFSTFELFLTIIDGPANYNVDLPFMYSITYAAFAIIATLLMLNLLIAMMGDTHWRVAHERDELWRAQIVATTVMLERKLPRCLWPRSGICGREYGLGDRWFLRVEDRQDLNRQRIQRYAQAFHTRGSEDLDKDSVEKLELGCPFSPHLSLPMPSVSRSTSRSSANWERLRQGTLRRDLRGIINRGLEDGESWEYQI
On to R74Q, for which the “effect of a mutation on the interaction” value was “with no effect”.

The next assay covers variants of B6. The settings on record: with ptn23_human PTPN23, Q9H3S7.
As to R74Q, the “effect of a mutation on the interaction” value was “with no effect”.

Variants of B6 are the subject of another assay. The settings on record: with gata2_human GATA2, P23769.
Chain of gata2_human GATA2, P23769 (P23769 whole entry): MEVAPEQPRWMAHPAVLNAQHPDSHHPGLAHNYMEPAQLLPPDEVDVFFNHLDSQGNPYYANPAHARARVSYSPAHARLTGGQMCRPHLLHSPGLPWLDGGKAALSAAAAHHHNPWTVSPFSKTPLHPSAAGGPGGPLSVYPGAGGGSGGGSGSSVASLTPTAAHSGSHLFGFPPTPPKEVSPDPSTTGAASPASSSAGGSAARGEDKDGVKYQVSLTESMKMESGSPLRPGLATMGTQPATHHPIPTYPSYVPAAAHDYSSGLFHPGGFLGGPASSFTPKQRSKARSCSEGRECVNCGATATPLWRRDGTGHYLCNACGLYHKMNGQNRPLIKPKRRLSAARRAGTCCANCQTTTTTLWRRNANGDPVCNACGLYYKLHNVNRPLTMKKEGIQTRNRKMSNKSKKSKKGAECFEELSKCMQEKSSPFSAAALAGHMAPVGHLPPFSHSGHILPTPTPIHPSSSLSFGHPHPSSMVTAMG
As for R74Q, the “effect of a mutation on the interaction” value is listed as “with no effect”.

The variants in a further assay derive from B6. The settings on record: with hbaz_human HBZ.
For the variant R74Q, the “effect of a mutation on the interaction” value is on record as “with no effect”.

In the next assay the parent is B6. The settings on record: with nect3_human NECTIN3, Q9NQS3.
Take R74Q: the “effect of a mutation on the interaction” value is recorded as “with no effect”.

In a further assay the parent is B6. The settings on record: with cd5r1_human CDK5R1, Q15078.
Chain of cd5r1_human CDK5R1, Q15078 (Q15078 whole entry): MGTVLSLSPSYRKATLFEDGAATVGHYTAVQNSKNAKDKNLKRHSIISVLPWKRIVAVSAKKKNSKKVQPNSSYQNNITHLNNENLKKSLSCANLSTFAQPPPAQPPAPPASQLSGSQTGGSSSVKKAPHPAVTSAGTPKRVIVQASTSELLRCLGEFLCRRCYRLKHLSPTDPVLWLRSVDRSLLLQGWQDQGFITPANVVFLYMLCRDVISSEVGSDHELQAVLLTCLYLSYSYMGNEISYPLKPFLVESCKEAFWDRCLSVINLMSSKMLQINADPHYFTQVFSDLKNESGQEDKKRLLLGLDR
Turning to R74Q, the “effect of a mutation on the interaction” value is “with no effect”.

In a further assay the parent is B6. The settings on record: with uxt_human UXT.
With R74Q, the “effect of a mutation on the interaction” value is listed as “with no effect”.

In the next assay the parent is B6. The settings on record: with yipf3_human YIPF3, Q9GZM5.
Chain of yipf3_human YIPF3, Q9GZM5 (Q9GZM5 whole entry): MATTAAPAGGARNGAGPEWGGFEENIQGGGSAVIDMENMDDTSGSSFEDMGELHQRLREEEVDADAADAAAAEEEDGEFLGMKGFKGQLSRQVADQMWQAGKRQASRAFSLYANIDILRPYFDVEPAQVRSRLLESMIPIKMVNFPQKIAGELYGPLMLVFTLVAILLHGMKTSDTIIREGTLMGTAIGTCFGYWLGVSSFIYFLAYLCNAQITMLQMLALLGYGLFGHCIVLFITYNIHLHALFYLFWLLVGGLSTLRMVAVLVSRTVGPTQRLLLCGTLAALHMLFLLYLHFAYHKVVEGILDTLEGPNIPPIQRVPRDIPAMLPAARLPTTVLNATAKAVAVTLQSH
Regarding R74Q, the “effect of a mutation on the interaction” value is reported as “with no effect”.

Another assay covers variants of B6. The settings on record: with thms2_human THEMIS2, Q5TEJ8.
Chain of thms2_human THEMIS2, Q5TEJ8 (Q5TEJ8 whole entry): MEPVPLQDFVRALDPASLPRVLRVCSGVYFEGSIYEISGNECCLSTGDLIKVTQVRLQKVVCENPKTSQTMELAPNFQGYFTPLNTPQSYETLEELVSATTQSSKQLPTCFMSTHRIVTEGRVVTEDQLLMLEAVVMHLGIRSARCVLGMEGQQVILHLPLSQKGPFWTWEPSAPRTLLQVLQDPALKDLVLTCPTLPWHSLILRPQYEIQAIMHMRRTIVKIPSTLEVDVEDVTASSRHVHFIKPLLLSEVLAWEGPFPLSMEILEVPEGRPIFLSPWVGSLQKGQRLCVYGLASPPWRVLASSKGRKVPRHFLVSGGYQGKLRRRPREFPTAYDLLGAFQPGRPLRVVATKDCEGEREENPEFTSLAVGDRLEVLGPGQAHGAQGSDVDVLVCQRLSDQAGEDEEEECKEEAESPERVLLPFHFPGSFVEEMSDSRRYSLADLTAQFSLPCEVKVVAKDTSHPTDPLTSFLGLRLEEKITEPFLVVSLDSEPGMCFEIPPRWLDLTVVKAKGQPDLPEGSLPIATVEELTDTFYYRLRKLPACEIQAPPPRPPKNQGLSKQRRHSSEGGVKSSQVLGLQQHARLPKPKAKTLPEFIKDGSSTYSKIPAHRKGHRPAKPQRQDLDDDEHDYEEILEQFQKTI
As for R74Q, the “effect of a mutation on the interaction” value was “with no effect”.

Variants of B6 are the subject of another assay. The settings on record: with bmp7_human BMP7, P18075.
Chain of bmp7_human BMP7, P18075 (P18075 whole entry): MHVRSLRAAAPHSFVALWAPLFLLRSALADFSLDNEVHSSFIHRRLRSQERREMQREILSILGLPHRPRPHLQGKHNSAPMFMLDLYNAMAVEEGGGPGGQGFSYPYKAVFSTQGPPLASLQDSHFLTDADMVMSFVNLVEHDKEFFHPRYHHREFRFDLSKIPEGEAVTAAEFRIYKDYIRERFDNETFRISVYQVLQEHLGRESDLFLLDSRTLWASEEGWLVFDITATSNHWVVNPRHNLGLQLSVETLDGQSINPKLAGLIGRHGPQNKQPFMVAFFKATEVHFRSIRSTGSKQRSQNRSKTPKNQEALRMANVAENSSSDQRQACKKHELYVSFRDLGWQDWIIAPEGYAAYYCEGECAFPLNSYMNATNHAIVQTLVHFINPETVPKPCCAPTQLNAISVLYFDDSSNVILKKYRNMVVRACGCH
Take R74Q: the “effect of a mutation on the interaction” value was “with no effect”.

The variants in the next assay derive from B6. The settings on record: with cxcl5_human CXCL5, P42830.
Chain of cxcl5_human CXCL5, P42830 (P42830 whole entry): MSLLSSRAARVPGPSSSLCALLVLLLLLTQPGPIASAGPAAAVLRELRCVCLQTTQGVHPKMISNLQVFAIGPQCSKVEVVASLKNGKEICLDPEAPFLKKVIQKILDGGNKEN
Take R74Q: the “effect of a mutation on the interaction” value was “with no effect”.
